Test results taken from PMC12069319, “Transcriptional co-regulator OCA-B/Pou2af1 restricts Th2 differentiation”.

Biological target: Oct1 DNA binding domain (Oct1-DBD);OCA-B (human (from pBabe-hOct1);, UniProt P14859;Q16633 280-438;1-256, |)
Test: EMSA; OCA-B supershifts Oct1-DBD; EMSA: 0.6X buffer D (1X: 20 mM HEPES, 100 mM KCl, 1 mM DTT), 50 ng/ul poly-dI/dC, 1 ug/ul BSA, on ice 15 min, 6% native PAGE in 0.5X TBE; probe 50 nM (1 nM for)
Conditions: protein: recombinant;recombinant; tags: His (pET28a);C-terminal twinstrep and FLAG; copies: 1;1; blunt

Sequence of Oct1 DNA binding domain (Oct1-DBD);OCA-B (P14859 280-438, chain 1 of 2): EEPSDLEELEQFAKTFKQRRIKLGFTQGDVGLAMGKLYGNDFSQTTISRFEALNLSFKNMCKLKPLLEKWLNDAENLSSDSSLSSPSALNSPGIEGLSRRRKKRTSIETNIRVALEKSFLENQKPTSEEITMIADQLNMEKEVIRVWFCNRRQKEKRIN
Sequence of Oct1 DNA binding domain (Oct1-DBD);OCA-B (Q16633 whole entry, chain 2 of 2, the tested form may be a part): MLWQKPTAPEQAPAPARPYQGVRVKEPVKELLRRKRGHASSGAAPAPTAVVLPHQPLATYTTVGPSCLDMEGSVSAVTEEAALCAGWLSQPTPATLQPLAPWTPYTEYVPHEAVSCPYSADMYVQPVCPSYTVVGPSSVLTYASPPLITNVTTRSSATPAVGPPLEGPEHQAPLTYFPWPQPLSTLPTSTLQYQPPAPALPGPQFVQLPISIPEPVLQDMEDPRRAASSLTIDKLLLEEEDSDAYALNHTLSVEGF

B1: RHS6-Cy5 (dsDNA)
DNA 1: CACCATGCAAAGGATGTGCGCGGACTCCCTTCCATTTGCTGGCCTCTTATCTGATA
DNA 2: TATCAGATAAGAGGCCAGCAAATGGAAGGGAGTCCGCGCACATCCTTTGCATGGTG
Q: Does B1 bind?
A: binds
